Test results from patent US20160145352A1 (INSTITUT NATIONAL DE LA RECHERCHE AGRONOMIQUE, published 2016).

B1: C25-HA polypeptide (VHH C25 fused to the HA tag) (VHH)
VHH: QVQLQASGGGLVQAGESLTLSCDASGRTFSIGAMGWFRQAPGKEREFLAAINWNGGYTSYADVASGRFTISRNAKNTVYLQMNSLQPEDTAVYYCAAKYGGSARSRTYDYWGQGTQVTVS
notes: Secreted into E. coli culture medium from pHEN4-VHH; also called VHH-HA; not shown: HA tag from the pHEN4 vector
B2: C76-HA polypeptide (VHH C76 fused to the HA tag) (VHH)
VHH: QVQLQASGGGLVQAGGSLRLSCAVSGGTLSSYTMGWFRQAPGKEREFVSALSRVGGKSDYADSVKGRFTISRNAKNTVYLQMNSLKPEDTAVYYCAAGGYSRRWSAYNYWGQGTQVTVS
notes: Secreted into E. coli culture medium from pHEN4-VHH; also called C75-HA (as printed in Experiment 2); VHH-HA; not shown: HA tag from the pHEN4 vector
B3: S2-HA polypeptide (VHH S2 fused to the HA tag) (VHH)
VHH: QVQLQASGGGLVQAGDSLRLSCAAAGRSFSSYAMGWFRQAPGKEREFVAAISRSRGVTYADSVKGRFTISKDNVKNMAYLQMNSLKPEDTGVYYCAATSSGSTRQLSTGRSNYWGQGTQVTVS
notes: Secreted into E. coli culture medium from pHEN4-VHH; it calls it the VHH domain; also called VHH-HA; not shown: HA tag from the pHEN4 vector

The binders below were run against H3 histone (HPLC-purified fraction) (human, UniProt P68431 2-136) (assay: immunoblot on HPLC-purified histones, VHH-HA plus anti-HA, HRP/ECL).
Experimental: (§1) After blocking in TBS-T (Tris buffered saline, 0.1% Tween® 20), 5% skimmed milk, the membrane is incubated for 1 h in a dilution of the VHH-HA polypeptide (5 μg/ml) combined with an anti-HA antibody (HA-11 mouse monoclonal 16B12 from Covance) diluted to 1 μg/ml in TBS-T, 5% skimmed milk. The membranes are also probed with the anti-H2AX (Epitomics clone EPR895) and anti-γH2AX (Millipore) monoclonal antibodies. After 3 washes in TBS-T, the blot is incubated with the anti-mouse secondary antibody coupled to horseradish peroxidase (HRP) (Cell Signaling), then washed 3 times for 10 min. Visualization is carried out with an ECL substrate (Enhanced Chemiluminescence West Dura Thermo scientific). The chemiluminescence photon emission is captured by a camera (G-Box Syngene).
(§2) To this effect, the proteins of the fractions thus obtained, in particular of the fractions containing H2A, H2B and H3, and also a mixture of the H2A and H2B fractions, are separated by electrophoresis in a denaturing polyacrylamide gel (NuPage® Bis Tris, Life Technologies), then transferred onto a nitrocellulose membrane. The visualization is carried out according to the protocol described above.

Binding result, no binding (tested: 5 µg/ml):
B1, B2, B3

The binders below were run against H2B histone in the monomeric state (HPLC-purified fraction) (human, UniProt P62807 2-126) in the same assay as above.
Experimental: as §1, §2

Binding result, no binding (tested: 5 µg/ml):
B1, B2, B3

These binders were tested against H4 histone (in total histones acid-extracted from HT1080 human cells) (human, UniProt P62805 2-103) (assay: immunoblot on acid-extracted total histones of HT1080 cells, overlaid on Ponceau red staining).

Binding result, no binding (tested: 5 µg/ml):
B1, B2, B3
